Reference: paper PMC3310290

Target: fibrin (Homo sapiens) (UniProt P02671)
Assay: ELISA

Sequence of fibronectin, P02751 (P02751 32-2477): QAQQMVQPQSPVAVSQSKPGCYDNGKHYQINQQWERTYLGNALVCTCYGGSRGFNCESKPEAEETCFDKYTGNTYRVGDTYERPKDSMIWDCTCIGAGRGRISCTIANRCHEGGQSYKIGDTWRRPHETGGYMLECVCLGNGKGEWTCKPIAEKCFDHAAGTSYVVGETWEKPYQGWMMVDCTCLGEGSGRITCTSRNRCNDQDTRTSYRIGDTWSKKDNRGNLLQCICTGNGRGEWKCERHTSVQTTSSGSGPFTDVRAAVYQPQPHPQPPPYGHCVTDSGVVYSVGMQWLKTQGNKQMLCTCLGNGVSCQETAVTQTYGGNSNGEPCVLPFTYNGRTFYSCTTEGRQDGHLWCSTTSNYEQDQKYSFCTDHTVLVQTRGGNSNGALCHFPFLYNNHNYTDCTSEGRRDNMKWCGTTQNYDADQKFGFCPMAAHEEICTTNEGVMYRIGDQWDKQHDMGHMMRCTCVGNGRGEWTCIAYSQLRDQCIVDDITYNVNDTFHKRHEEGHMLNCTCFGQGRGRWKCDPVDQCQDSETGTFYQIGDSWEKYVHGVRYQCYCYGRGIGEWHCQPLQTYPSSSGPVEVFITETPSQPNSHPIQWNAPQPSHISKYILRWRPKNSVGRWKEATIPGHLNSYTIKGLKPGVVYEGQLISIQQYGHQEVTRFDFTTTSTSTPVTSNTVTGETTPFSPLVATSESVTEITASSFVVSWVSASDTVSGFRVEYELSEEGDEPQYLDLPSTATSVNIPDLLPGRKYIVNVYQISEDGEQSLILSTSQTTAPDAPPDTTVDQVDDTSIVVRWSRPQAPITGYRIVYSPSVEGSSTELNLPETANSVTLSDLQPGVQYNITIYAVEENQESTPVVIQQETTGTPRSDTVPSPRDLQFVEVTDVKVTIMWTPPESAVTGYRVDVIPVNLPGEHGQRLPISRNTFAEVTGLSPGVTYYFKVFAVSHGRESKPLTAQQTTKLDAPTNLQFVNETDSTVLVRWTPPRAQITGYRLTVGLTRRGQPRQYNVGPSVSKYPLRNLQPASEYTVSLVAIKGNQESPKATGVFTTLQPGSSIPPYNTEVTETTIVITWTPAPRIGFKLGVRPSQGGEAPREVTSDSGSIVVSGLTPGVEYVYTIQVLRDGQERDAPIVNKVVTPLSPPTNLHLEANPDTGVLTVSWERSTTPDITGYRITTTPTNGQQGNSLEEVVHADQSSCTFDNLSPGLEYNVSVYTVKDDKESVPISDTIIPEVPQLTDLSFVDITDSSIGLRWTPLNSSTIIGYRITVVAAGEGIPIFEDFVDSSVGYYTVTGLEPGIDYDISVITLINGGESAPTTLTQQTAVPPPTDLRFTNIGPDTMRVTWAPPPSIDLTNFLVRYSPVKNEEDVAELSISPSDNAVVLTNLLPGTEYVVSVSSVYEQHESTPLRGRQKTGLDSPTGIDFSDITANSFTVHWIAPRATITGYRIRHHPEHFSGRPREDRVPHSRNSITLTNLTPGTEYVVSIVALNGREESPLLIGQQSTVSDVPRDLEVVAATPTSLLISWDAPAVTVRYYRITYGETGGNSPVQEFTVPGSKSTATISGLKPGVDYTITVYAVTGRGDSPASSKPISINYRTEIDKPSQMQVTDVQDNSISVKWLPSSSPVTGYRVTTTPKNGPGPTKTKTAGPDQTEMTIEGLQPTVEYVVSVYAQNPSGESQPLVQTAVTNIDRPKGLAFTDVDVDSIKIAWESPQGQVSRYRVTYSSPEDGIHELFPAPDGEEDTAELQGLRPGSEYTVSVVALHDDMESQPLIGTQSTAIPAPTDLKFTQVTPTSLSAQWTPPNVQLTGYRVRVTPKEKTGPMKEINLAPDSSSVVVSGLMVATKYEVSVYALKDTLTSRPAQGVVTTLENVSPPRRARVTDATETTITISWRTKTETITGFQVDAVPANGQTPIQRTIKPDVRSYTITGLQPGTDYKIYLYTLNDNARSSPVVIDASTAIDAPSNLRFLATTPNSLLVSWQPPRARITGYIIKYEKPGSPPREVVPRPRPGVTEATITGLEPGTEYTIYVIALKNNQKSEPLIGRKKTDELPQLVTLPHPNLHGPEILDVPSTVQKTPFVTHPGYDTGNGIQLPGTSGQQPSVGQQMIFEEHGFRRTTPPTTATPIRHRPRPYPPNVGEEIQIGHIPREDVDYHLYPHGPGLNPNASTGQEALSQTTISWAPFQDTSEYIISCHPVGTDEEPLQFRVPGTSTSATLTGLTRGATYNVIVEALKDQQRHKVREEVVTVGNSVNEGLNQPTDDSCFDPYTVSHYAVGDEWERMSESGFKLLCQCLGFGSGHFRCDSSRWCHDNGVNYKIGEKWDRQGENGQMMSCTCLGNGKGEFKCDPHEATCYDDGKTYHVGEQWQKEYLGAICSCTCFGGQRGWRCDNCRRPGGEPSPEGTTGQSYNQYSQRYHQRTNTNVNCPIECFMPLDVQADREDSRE

IC50: 4.9 nM
Substance: fibronectin, P02751
